The target in the data set is T1, TR4 (testicular orphan nuclear receptor 4, NR2C2) (UniProt P49116 SEQ:1-596).
T1 sequence: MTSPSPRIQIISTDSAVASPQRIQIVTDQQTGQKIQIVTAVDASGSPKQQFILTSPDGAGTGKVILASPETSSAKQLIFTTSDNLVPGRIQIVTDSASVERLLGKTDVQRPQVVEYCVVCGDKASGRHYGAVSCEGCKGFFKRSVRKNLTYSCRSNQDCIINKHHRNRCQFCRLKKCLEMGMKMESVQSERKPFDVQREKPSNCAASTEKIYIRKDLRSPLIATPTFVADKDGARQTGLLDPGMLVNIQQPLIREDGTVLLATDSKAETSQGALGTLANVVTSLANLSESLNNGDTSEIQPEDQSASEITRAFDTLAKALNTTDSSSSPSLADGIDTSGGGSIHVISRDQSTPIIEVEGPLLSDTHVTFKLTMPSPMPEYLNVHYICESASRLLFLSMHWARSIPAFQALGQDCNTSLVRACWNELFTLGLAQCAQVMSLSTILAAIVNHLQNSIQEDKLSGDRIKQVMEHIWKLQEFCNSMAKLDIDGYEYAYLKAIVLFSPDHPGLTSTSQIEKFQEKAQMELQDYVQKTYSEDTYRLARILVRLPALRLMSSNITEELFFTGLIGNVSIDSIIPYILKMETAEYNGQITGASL
In words: EMSA; supershifted by monoclonal anti-TR4 antibody #15; 10 mM HEPES pH 7.9, 100 mM KCl, 2.5 mM MgCl2, 0.5 mM EDTA, 1 mM DTT, room temperature 15 min. As to conditions: tags: rabbit reticulocyte lysate (Promega); label: 32P 5' end. The procedure:
TR4 proteins were synthesized in rabbit reticulocyte lysate (Promega), according to the manufacturer's instructions. The oligonucleotide probe (SEQ ID NO:46 nNOS-NHR, bp-198 to -211, 5′-[…]-3′) was end-labeled with [γ]³²P in a T4 polynucleotide kinase reaction (New England Biolabs). The EMSA reaction was performed with 2 μl TR4-containing lysate in an EMSA buffer (10 mM HEPES, pH 7.9, 6% (v/v) glycerol, 2% (v/v) Ficoll, 100 mM KCl, 0.5 mM EDTA, 2.5 mM MgCl₂, and 1 mM dithiothreitol). The reaction mixtures were incubated for 15 min. at room temperature, in the presence or absence of a mouse monoclonal anti-TR4 antibody (#15). The protein-DNA complexes were analyzed on a 5% native polyacrylamide gel. The results were visualized by autoradiography (Storm PhosphorImaging System, Amersham Pharmacia).
For orientation: In EMSA bound probe runs differently from free probe, usually more slowly.

B1: nNOS-NHR probe (dsDNA)
DNA 1: CTGGTCAACCTTGACTTCCTT
DNA 2: AAGGAAGTCAAGGTTGACCAG
For B1, the binding result is recorded as “binds”.

For the origin of these results see patent US20060212953, “Tr2, tr4, tr2/tr4 double knockouts and uses thereof” (published 2006).
